In experiment [1] the target is T1, TruB pseudouridine synthase family member 1 (human, UniProt Q8WWH5 2-349).
T1 construct: on protein array; also called TRUB1
T1 sequence: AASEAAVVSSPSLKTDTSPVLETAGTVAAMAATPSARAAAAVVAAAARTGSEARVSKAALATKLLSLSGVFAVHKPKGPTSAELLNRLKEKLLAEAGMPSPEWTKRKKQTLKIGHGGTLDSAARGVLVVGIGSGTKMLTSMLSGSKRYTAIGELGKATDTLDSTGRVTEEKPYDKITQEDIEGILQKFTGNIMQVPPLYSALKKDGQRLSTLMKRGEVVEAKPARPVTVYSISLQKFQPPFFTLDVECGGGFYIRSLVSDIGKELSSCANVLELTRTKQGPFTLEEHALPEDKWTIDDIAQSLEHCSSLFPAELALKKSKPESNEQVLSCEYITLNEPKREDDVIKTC
Put plainly: protein array.

Experiment [2] addresses T2, phospholipid scramblase 4, transcript variant X4 (human, UniProt Q9NRQ2 1-329).
T2 construct: on protein array; also called PLSCR4
T2 chain: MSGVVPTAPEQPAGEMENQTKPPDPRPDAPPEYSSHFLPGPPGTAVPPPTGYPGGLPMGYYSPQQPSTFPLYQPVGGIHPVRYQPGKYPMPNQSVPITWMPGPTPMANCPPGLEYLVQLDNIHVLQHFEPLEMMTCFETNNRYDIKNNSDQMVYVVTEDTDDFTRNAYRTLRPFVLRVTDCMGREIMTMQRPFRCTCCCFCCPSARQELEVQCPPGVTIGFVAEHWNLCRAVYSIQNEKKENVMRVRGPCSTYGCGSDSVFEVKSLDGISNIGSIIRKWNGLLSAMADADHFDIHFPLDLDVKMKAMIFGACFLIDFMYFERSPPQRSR
As to the kind of experiment: protein array.

In experiment [3] the target is T3, nudE neurodevelopment protein 1, transcript variant 1 (human, UniProt Q9NXR1 1-335).
T3 construct: on protein array; also called NDE1
T3 sequence: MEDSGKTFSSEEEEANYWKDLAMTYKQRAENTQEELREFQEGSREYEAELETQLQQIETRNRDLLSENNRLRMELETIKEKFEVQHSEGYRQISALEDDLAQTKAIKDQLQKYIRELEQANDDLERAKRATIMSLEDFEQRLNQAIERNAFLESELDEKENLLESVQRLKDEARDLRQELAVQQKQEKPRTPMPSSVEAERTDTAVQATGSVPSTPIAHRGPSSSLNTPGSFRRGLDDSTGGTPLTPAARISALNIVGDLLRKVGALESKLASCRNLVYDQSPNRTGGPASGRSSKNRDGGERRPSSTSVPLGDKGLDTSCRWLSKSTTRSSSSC
As to the kind of experiment: protein array.

Experiment [4] has as its target T4, SNAP associated protein, transcript variant 1 (human, UniProt O95295 2-136).
T4 construct: on protein array; also called SNAPIN
T4 sequence: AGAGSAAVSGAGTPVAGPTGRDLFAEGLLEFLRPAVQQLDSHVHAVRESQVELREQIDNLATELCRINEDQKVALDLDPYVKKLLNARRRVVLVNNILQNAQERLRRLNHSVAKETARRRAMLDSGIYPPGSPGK
Put plainly: protein array.

For experiment [5], the target named is T5, JPX transcript, XIST activator (human).
T5 construct: on protein array
T5 chain: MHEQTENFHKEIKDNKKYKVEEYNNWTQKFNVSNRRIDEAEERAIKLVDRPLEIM
Put plainly: protein array.

For a further experiment, the target named is T6, LN608403.1_frag (human).
T6 construct: on protein array
T6 chain: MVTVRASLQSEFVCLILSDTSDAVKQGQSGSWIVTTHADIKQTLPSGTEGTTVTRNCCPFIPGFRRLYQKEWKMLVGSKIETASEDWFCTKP
As to the kind of experiment: protein array.

For experiment [6], the target named is T7, KH RNA binding domain containing, signal transduction associated 2, transcript variant 2 (human, UniProt Q5VWX1 1-349).
T7 construct: on protein array; also called KHDRBS2
T7 sequence: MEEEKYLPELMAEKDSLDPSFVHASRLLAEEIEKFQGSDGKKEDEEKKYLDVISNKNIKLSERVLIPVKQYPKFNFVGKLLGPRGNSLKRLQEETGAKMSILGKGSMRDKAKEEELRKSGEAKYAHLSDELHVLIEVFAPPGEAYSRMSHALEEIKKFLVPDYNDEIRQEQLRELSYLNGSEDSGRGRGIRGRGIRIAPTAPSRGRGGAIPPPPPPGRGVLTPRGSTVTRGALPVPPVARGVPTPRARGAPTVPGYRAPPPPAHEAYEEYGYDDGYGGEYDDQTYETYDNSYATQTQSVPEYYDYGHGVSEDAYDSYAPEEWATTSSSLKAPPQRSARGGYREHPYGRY
Put plainly: protein array.

In experiment [7] the target is T8, nucleosome assembly protein 1 like 1, transcript variant 1 (human, UniProt P55209 2-388).
T8 construct: on protein array; also called NAP1L1
T8 sequence: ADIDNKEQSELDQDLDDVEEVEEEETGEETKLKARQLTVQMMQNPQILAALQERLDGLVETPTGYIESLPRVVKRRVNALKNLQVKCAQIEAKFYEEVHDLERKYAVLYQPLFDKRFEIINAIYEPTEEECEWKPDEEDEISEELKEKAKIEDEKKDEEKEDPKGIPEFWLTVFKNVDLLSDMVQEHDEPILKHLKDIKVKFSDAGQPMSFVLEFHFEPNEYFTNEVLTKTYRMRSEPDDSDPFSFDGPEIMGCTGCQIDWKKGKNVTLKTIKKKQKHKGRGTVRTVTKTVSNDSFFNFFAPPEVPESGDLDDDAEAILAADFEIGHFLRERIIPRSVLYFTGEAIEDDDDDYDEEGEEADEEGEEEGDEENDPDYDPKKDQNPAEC
Put plainly: protein array.

The next experiment concerns the target T9, extended synaptotagmin 2 (human, UniProt A0FGR8 564-921).
T9 construct: on protein array; also called ESYT2_frag
T9 sequence: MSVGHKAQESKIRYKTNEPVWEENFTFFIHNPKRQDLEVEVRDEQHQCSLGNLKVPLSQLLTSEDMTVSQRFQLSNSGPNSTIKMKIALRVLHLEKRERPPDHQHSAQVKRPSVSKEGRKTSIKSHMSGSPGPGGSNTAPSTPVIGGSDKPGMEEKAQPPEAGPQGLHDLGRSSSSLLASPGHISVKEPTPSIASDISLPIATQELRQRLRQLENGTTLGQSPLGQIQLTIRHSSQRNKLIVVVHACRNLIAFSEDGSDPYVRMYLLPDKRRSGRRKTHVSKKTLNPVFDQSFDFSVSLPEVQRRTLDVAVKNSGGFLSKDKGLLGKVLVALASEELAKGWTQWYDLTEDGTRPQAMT
As to the kind of experiment: protein array.

Experiment [8] has as its target T10, UTP6 small subunit processome component (human, UniProt Q9NYH9 1-597).
T10 sequence: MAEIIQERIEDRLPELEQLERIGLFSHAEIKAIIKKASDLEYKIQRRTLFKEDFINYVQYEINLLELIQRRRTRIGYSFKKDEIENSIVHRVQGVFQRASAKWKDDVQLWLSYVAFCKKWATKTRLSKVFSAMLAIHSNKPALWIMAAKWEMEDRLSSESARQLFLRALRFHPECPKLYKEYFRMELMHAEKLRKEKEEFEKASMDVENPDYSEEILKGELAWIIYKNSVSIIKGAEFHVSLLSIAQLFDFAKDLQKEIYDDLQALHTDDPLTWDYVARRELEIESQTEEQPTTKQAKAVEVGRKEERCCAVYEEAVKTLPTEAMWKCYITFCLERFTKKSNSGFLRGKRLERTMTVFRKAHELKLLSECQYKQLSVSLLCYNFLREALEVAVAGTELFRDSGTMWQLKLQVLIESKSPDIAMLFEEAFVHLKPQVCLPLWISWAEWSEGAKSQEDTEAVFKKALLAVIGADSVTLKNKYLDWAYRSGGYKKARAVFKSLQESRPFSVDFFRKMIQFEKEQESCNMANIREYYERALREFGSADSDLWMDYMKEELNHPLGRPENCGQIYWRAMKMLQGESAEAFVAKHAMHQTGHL

The target in experiment [9] is T11, sorting nexin 33, transcript variant 1 (human, UniProt Q8WV41 1-574).
T11 construct: on protein array; also called SNX33
T11 sequence: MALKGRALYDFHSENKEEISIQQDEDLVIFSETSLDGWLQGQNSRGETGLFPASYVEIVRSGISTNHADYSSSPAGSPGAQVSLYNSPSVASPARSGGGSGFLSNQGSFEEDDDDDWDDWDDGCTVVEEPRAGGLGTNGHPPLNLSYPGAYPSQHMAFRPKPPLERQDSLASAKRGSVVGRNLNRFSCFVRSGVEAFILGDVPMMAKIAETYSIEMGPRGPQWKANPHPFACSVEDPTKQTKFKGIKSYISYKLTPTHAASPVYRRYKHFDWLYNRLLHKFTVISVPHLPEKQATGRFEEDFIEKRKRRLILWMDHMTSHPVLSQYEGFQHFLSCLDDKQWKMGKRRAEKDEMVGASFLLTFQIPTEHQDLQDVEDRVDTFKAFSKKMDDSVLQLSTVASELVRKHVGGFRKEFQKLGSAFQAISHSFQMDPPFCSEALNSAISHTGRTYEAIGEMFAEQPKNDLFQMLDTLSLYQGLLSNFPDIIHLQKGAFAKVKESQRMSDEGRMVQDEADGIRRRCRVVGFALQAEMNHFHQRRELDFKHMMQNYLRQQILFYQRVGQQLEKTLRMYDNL
Put plainly: protein array.

B1: TCER1003 (antibody, V domains shown)
VH: QITLKESGPTLVKPTQTLTLTCTFSGFSLTTTDVGVGWIRQPPGKALEWLTIIYWDDDERYSPSLKSRLTITKDTSKNQVVLSMTNMDPVDTATYYCARVYSTKWDFDYWGQGTLVTVSS
VL: VSSELTQDPAVSVALGQTVRITCQGDSLRRYYVSWYRQKPGEAPVVVIYGKNNRPSWIPDRLSGSSSGNTASLTITGAQAEDEADYYCCSRDSSGNPWVFGGGTKLTVLG
notes: VH/VL only
Turning to B1, the binding result in [1] and in experiment [2] was “binds” throughout.

B2: TCER1002 (antibody, V domains shown)
VH: QVQLQESGPGLVKPSETLSLSCTVSGASMNNYYWSWIRQSAGKGLEWIGRIYSSGDTDYNPSLKTRVTMSIDTSKNQFSLNLDSVTAADTATYYCARSFYDTLFYFENWGQGTLVTVSS
VL: DIQMTQSPSTLSASVGDRVTITCRASQSISVWLAWYQQKPGKAPKLLIYKASTLEAGVPSRFSGSGSGTEFSLTISGLQPDDFGTYFCQHYDSYPWTFGQGTKVEMK
notes: VH/VL only
In the case of B2, the binding result in experiment [3] is reported as “binds”.

B3: TBLA1006 (antibody, V domains shown)
VH: VQLVDSGGGLVQPGRSLRLSCAASGFVFDDYAMHWVRQVPGKGLEWVSGISWNSVSIGYADSVKGRFTISRDNAKNSLYLQMNSLRPEDAALYYCVKSFSAEYYYYYYGMDVWGQGTTVTVSS
VL: LYVLTQPPSVSVAPGTTAWISCGGNNIGIKSVHWYQQKPGQAPLLVISYDSDRPSVIPERFSVSNSGNTVTLTISRVEAGDEADYYCQVWDNGHSHWVFGGGTKLTVLG
notes: VH/VL only
For the molecule B3, the binding result in experiment [4] was “binds”.

B4: TBRE1045 (antibody, V domains shown)
VH: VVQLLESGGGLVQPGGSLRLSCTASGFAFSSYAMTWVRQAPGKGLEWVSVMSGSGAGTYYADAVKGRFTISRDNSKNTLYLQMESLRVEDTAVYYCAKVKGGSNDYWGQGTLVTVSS
VL: PYVLTQPPSVSVAPGQTARITCGGNNIGSKSVHWYQQKPGQAPVMVVYADRERPSGIPERLSGSNFGNTATLTISRVEAGDEADYYCQVWDSNNDHREVFGGGTKLTVLG
notes: VH/VL only
For B4, the binding result (in experiment [5]; in the experiment with LN608403.1_frag) was “binds” in each case.

B5: TCHO1001 (antibody, V domains shown)
VH: PVHLVQSGAEVKKPGSSVKVSCKLSGGIFSYFAIIWVRQAPGQGLEWMGTIIPIFGTSNYAEKFQDRVAIVADEATSTVYMEVNSLRSEDTAIYFCARDSEVEKSDGYMASTAEYFQLWGQGTLVTVSS
VL: not shown
notes: VH/VL only
B5: the binding result in experiment [6] is recorded as “binds”.

B6: TCER1001 (antibody, V domains shown)
VH: EVQLVESGGGLVQPGRSLRLSCAASGFTFDDYAMHWVRQAPGKGLEWVSGISWNSGSIGYADSVKGRFTISRDNAKNSLYLQMNSLRAEDTALYYCAKDLLGFRDQRNYYGMDVWGQGTTVTVSS
VL: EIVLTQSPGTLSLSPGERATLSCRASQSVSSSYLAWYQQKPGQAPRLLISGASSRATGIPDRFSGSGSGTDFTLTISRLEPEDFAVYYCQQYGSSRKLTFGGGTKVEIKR
notes: VH/VL only
As for B6, in [7], the binding result is recorded as “binds”.

B7: TCOL1004 (antibody, V domains shown)
VH: QVQLQESGPGLVKPSQTLSLTCIVSGGSISGDKNFWSWVRQHPEKGLEWLGYISYNGNTYYNPSLISRIIISLDTPKNLFSLRLSSVTVADTAIYYCAREVDIRGDSDAFDIWGRGTVVTVSS
VL: EIVMTQSPATLSVSPGERATLSCRASQSVSTNLAWYQQRPGQAPRLFIFGASTRATGIPARFSGSGSGTEFTLTISSPQPEDSAVYYCQQYTTRPLTFGGGTKVEIKR
notes: VH/VL only
On to B7, for which the binding result with extended synaptotagmin 2 is on record as “binds”.

B8: TUCE1005 (antibody, V domains shown)
VH: QVQLQESGPGLVKPSETLSLTCTVSGGSISSYYWSWIRQPAGKGLEWIGRIYTSGSTNYNPSLKSRVTMSVDTSKNQFSLKMSSVTAADTAVYYCARGELLFDHWGQGTLVTVSS
VL: not shown
For the molecule B8, in [8], the binding result is on record as “binds”.

B9: TCER1006 (antibody, V domains shown)
VH: EVQLVQSGAEVKKPGESLKISCKGSGYSFTSFWIGWVRQMPGKGLEWMGIIFPADSDTRYSPSFQGQVIISVDKSISTAYLQWSSLKASDTAMYYCARRGVSGGSAWTYYNFFDPWGQGTLVTVAS
VL: PSVLTQPPSVSAAPGQKVTISCSGSSSNIDNNYVSWYQQLPGTAPKLLIYENNKRASGIPDRFSGSKSGTSATLGITGLQTGDEADYYCGTWDSSLSPGGVFGGGTKLTVLG
notes: VH/VL only
With B9, in experiment [9], the binding result was “binds”.

The values are drawn from patent US20220204643A1 (published 2022).
